# Measured values: patent publication US20140079691A1 (ANAPTYSBIO, published 2014)
# Residue numbers refer to the chain shown, from its start.
# T1: MS2 bacteriophage coat protein (MS2 bacteriophage, UniProt P03612 2-130)
# T1 sequence: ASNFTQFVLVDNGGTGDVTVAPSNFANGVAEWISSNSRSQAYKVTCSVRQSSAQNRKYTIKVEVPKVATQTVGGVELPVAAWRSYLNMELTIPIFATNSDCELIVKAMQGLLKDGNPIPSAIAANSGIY
# B1: mouse anti-MS2 scFv (scFv)
# scFv: EVKLVESGGGLVKPGGSLKLSCAASGFTFSSYAMSWVRQTPEKRLEWVATISTGGGYTYFPDSVKGRFTISRDNAKNALYLQMKSLRSEDTAMYYCARQGDFGDWYFDVWGAGTTVTVSSGGGGSGGGGSGGGGSDVLMTQTPLSLPVSLGDQASISCRSSQSLVHSNGNTYLHWYLQKPGQSPKLLIYKVSNRFSGVPDRFSGSGSGTDFTLKISRVEAEDLGVYFCSQSTHVPWTFGGGTKLEIK
# B2: APE443 (antibody, V domains shown)
# VH: EVQLLESGGGLVQPGGSLRLSCAASGFTFSSYAMSWVRQAPGKGLEWVSTISTGGGYTYFPDSVKGRFTISRDNSKNTLYLQMNSLRAEDTAVYYCARQGDFGDWYFDVWGAGTTVTVSS
# VL: DVVMTQSPLSLPVTLGQPASISCRSSQSLVHSNGNTYLHWFQQRPGQSPRRLIYKVSNRFSGVPDRFSGSGSGTDFTLKISRVEAEDVGVYYCSQSTHVPWTFGGGTKLEIK
# notes: also called initial CDR-grafted antibody; initial grafted antibody
# B3: APE1027 (antibody, V domains shown)
# VH: B2 VH with L5V, R19I, A23V, S49C, F60S, I70C
# VL: B2 VL with M4L, P12A, T14L, Q27E, S32T, F41Y, R51L, Y92F, H98R
# B4: APE556 (antibody, V domains shown)
# VH: B2 VH
# VL: B2 VL with F41Y, R51L, Y92F
# B5: APE849 (antibody, V domains shown)
# VH: B2 VH with F60S
# VL: B2 VL with Q27E, S32T, F41Y, R51L, Y92F, H98R
# B6: APE565 (antibody, V domains shown)
# VH: B2 VH with S49C, I70C
# VL: B2 VL with F41Y, R51L, Y92F
# B7: APE830 (antibody, V domains shown)
# VH: B2 VH with A23V
# VL: B2 VL with Q27E, S32T, F41Y, R51L, Y92F, H98R
# B8: APE1052 (antibody, V domains shown)
# VH: B2 VH
# VL: B2 VL with Q27E, S32T, F41Y, R51L, Y92F, H98R
# B9: APE1051 (antibody, V domains shown)
# VH: B2 VH with A23V
# VL: B2 VL with F41Y, R51L, Y92F
# B10: APE850 (antibody, V domains shown)
# VH: B2 VH with A23V, F60S
# VL: B2 VL with Q27E, S32T, F41Y, R51L, Y92F, H98R
# How the values were obtained:
# [1] = target: T1, MS2 bacteriophage coat protein; experiment: SPR (Biacore T200), MS2 immobilised on CM5 chip, scFv in solution
# Protocol: (§1) Binding affinity measurements for the antibody variants were obtained by surface immobilization of antigen. Specifically, kinetic analysis was performed using a Biacore T200 (GE Healthcare, Waukesha, Wis.). […] For full-length IgGs, a capture assay was used to allow accurate assessment of antibody affinity. […] Surfaces were regenerated using 3 M MgCl₂. Association and dissociation kinetic values (kₐ and kd) were determined from a best fit of the data with the 1:1 Langmuir global fitting procedure to sensorgrams using the Biacore T200 Evaluation Software, version 1.0.
# [2] = target: T1, MS2 bacteriophage coat protein; experiment: SPR (Biacore), FIG. 2D
# [3] = target: T1, MS2 bacteriophage coat protein; experiment: SPR (Biacore), FIG. 2C
# [4] = target: T1, MS2 bacteriophage coat protein; experiment: SPR (Biacore T200), IgG captured on anti-human IgG Fc, MS2 antigen flowed over
# Protocol: as §1
# [5] = target: T1, MS2 bacteriophage coat protein; experiment: SPR (Biacore), FIG. 7C
# [6] = target: T1, MS2 bacteriophage coat protein; experiment: SPR (Biacore), FIG. 3D
# [7] = target: T1, MS2 bacteriophage coat protein; experiment: SPR (Biacore)
binder,measurement,setting,value
B1,Kd,[1],29 nM
same,koff,[2],0.008 s⁻¹
same,kon,[2],280000 M⁻¹ s⁻¹
B2,Kd,[3],170 nM
same,koff,[3],0.011 s⁻¹
same,kon,[3],68000 M⁻¹ s⁻¹
same,Kd,[4],84 nM
B3,koff,[5],8.5e-05 s⁻¹
same,kon,[5],97000 M⁻¹ s⁻¹
same,Kd,[4],0.88 nM
B4,Kd,[4],27 nM
same,koff,[6],0.0055 s⁻¹
same,kon,[6],210000 M⁻¹ s⁻¹
B5,Kd,[4],2 nM
same,fold improvement in affinity (reference not given),[7],40 fold
B6,Kd,[4],7 nM
same,fold improvement in KD over APE556,[7],4 fold
B7,Kd,[4],1.6 nM
B8,Kd,[4],4.2 nM
same,fold improvement in KD over the initial grafted antibody (APE443),[7],20 fold
B9,Kd,[4],15.1 nM
B10,Kd,[4],0.985 nM
same,fold improvement in KD over the initial grafted antibody (APE443),[7],85 fold
same,fold improvement in ka over the initial grafted antibody (APE443),[7],12 fold
same,fold improvement in kd over the initial grafted antibody (APE443),[7],7 fold
